Assay results published in article PMC7156110, “The MAPK substrate MASS proteins regulate stomatal development in Arabidopsis” (PLoS Genetics, 2020).

Molecular target: T1, MBP-YDA (recombinant YODA) (Arabidopsis thaliana, UniProt Q9CAD5 1-883)
T1 construct: MAPKK kinase YODA (YDA, AT1G63700), Arabidopsis thaliana; also called MBP-tagged YDA; source: E. coli BL21 (DE3), purified (Amylose Resin)
T1 sequence (looked up): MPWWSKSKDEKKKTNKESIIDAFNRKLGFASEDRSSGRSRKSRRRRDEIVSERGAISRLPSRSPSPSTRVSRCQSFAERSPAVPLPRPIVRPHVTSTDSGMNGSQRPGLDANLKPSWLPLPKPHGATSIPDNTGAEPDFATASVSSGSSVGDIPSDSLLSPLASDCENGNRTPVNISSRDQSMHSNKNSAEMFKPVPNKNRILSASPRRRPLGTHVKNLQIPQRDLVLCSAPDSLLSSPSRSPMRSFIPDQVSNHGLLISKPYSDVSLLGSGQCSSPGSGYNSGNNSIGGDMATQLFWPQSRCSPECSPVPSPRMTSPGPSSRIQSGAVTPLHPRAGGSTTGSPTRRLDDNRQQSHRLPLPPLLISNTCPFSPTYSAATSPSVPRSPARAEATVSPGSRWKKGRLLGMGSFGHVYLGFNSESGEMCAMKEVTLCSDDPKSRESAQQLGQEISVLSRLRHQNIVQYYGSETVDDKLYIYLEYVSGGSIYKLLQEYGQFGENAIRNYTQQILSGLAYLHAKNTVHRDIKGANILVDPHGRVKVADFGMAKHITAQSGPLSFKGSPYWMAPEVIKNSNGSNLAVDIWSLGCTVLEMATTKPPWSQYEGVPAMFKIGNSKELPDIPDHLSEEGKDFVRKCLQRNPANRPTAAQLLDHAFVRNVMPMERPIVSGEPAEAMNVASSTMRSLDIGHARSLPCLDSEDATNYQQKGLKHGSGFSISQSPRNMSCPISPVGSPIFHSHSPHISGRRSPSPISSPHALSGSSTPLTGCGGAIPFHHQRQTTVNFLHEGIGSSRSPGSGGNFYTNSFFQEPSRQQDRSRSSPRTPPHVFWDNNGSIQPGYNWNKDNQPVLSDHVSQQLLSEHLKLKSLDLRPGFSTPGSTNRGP
Experiment: pull-down; MBP-YDA held on Amylose Resin, incubated with His-MASS2 at 4°C for 2 h; washing buffer 50 mM Tris-HCl pH 7.5, 10 mM MgCl2, 150 mM NaCl, 1 mM DTT; blots with anti-His and anti-MBP
Settings: both partners purified

B1: His-MASS2.3 (MASS2 splicing variant 3, recombinant) (natural protein, Arabidopsis thaliana, UniProt Q9XI29 1-148, looked up)
chain: MEGLQRSTISFRRQGSSGIVFDDRLIAELNKSGNNEQKDESQRDEQPKPMSESSEQVKPIDEKDKLRPIKTGGGAPGGIERSRSNGGGAQRHHRTTGRVSPAVDPPSPRISSCGCCSAFGKNPPGKKVNPRKRPPKRRSRRRIVTKKR
notes: source: E. coli BL21 (DE3), purified (Ni-NTA agarose)
**Q.** Does B1 bind?
**A.** binds
